Test results reported in the DeepSol protein solubility set.

test: soluble on expression in E. coli; label from the status in PepcDB or PDB records

Sequence	soluble on expression in E. coli
MGHHHHHHGGHMSLDYQKEYERKLISPEEAANLVKDGMHIEIGGSANTALIIDKYLAKRKDELSHVEVGTFIDIAHYEFLKADPEQEKIKWESCFLYEPVRKCSKELGPCVHRPGVLSDAGYIAKELGGVLKGGKKYTDIAFLVTTPMDRHGFFNFGVTCTFLKSIAEGAEKVVVVVKKDMPWVNGGYDECIHISEVDYIVEDNEFPTPFLPFLPPPSKEDEMIAENIMEAGLIENGSTLQVGIGGLPNTVVRMLKEAGLKDLGIHTEMMGDGLMELMEEGIVTNQNKKLDRGKAVFSFALGTRKLYDFLDRNPEVATYPVEYTNNPFVVAQQPKMFSLNQVAQIDLMGQINSGQIGLTSPSGKIFQISGTGGQLDFVLGCFYSFDRQGKSVLATYSTYNGTSRIIPALPTGAGVTVPRSVVQYVATEWGIAYLRGLPIYKRAAAMIQLAHPDHRDWLEEEARKLGILPPKYSIPAGKADGVIYRRDEGGS	soluble
MGHHHHHHGGHMSLEIVKEVERLIREGKILDAFELVKQSAPEELRERIEKSFRDAEEIKKLDGIWKKLMLILHFVYASQDAVERQDKQSLVSCVVSSVNAIKLTIELGMKSITPVLMRNAARALILMDMKENAERMYTEAEKICEENRDEEMLAAIENDLATLYYDMGKYNEAKVKAEEALEIRRKIGTKEELAESLATASEIYVKLGDFDEAEECYREAEKLYRELVEEAESFKLNLAILLSNYAMFRKKLGRYQEAEKMFKEALEIFQNLERIDADFMQFVAAAYRHLGDLYREMKEYSKAEEYYKLSREKFRDIQKRWESVASEGGS	soluble
MGHHHHHHGGHMSLIISSLTNPNFKVGLPKVIAEVCDYLNTLDLNALENGRHDINDQIYMNVMEPETAEPSSKKAELHHEYLDVQVLIRGTENIEVGATYPNLSKYEDYNEADDYQLCADIDDKFTVTMKPKMFAVFYPYEPHKPCCVVNGKTEKIKKLVVKVPVKLIEGGS	soluble
MGHHHHHHGGHMSLLTFVGLGLWDVKDISVKGLEAVREADEVYVEYYTSKLLSSIEEMEEFFGKRVVELERSDLEENSFRLIERAKSKSVVLLVPGDPMVATTHSAIKLEAERKGVKTRIIHGASISTAVCGLTGLHNYRFGKSATVSWHRSQTPVNVIKANRSIDAHTLLFLDLHPEPMTIGHAVENLIAEDAQMKDLYAVGIARAGSGEEVVKCDRLENLKKIDFGKPLHVMVVLAKTLHFMEFECLREFADAPAELERLVAEGGS	soluble
MGHHHHHHGSSIETDRVSKEFIEFLKTFHKTGQEIYKQTKLFLEGMHYKRDLSIEEQSECAQDFYHNVAERMQTRGKVPPERVEKIMDQIEKYIMTRLYKYVFCPETTDDEKKDLAIQKRIRALRWVTPQMLCVPVNEDIPEVSDMVVKAITDIIEMDSKRVPRDKLACITKCSKHIFNAIKITKNEPASADDFLPTLIYIVLKGNPPRLQSNIQYITRFCNPSRLMTGEDGYYFTNLCCAVAFIEKLDAQSLNLSQEDFDRYMSGQTSPRKQ	soluble
MGHHHHHHHHHHSSGHIDDDDLHMDMHSGTFNPQDFAWQGLTLTPAAAIHIRELVAKQPGMVGVRLGVKQTGCAGFGYVLDSVSEPDKDDLLFEHDGAKLFVPLQAMPFIDGTEVDFVREGLNQIFKFHNPKAQNECGCGESFGV	soluble
MGHHHHHHSHANCAENEEGCTPLHLACRKGDGEILVELVQYCHTQMDVTDYKGETVFHYAVQGDNSQVLQLLGRNAVAGLNQVNNQGLTPLHLACQLGKQEMVRVLLLCNARCNIMGPNGYPIHSAMKFSQKGCAEMIISMDSSQIHSKDPRYGASPLHWAKNAEMARMLLKRGCNVNSTSSAGNTALHVAVMRNRFDCAIVLLTHGANADARGEHGNTPLHLAMSKDNVEMIKALIVFGAEVDTPNDFGETPTFLASKIGRLVTRKAILTLLRTVGAEYCFPPIHGVPAEQGSAA	not soluble
MGHHHHHHSHEWGTVQLRGSWRVGQTAGGSRNFASYPTNPCFPFSVPEGPGPRCVRITLHQHCRPSDTEFHPIGFHIFQVPEGGRSQDAPPLLLQEPLLSCVPHRYAQEVSRLCLLPAGTYKVVPSTYLPDTEGAFTVTIATRIDRPSIHSQEMLGQFLQEVSVMAVMKT	not soluble
MGHHHHHHSHIAELYGAVLWGETVHLFMEAGEGGSVLEKLESCGPMREFEIIWVTKHVLKGLDFLHSKKVIHHDIKPSNIVFMSTKAVLVDFGLSVQMTEDVYFPKDLRGTEIYMSPEVILCRGHSTKADIYSLGATLIHMQTGTPPWVKRYPRSAYPSYLYIIHKQAPPLEDIADDCSPGMRELIEASLER	not soluble
MGHHHHHHSHKCNAGFFHTLSGECVPCDCNGNSNECLDGSGYCVTTDGEDPGFSASALSFILSSQGAREARAPT	not soluble
MGHHHHHHSHKPIKVEKTVTINKPADELYRYWHNFENLPTFMKHLKSVKVYNEKRSHWIANAPLGNSVEWDADILEDRENEFISWASAEGADVENSGFVRFQKAPGDVPGQAASRLRGTEVKVVLEYNLPGGALAAVVAKLFGEEP	not soluble
MGHHHHHHSHLSPEPPVYSLQDFDTLATVGTGTFGRVHLVKEKTAKHFFALKVMSIPDVIRLKQEQHVHNEKSVLKEVSHPFLIRLFWTWHDERFLYMLMEYVPGGELFSYLRNRGRFSSTTGLFYSAEIICAIEYLHSKEIVYRDLKPENILLDRDGHIKLTDFGFAKKLVDRTWTLCGTPEYLAPEVIQSKGHGRAVDWWALGILIFEMLSGFPPFFDDNPFGIYQKILAGKIDFPRHLDFHVKDLIKKLLVVDRTRRLGNMKNGANDVKHHRWFRSVDWEAVPQRKLKPPIVPKIAGDGDTSNFET	not soluble
MGHHHHHHSHMAAVDIRDNLLGISWVDSSWIPILNSGSVLDYFSERSNPFYDRTCNNEVVKMQRLTLEHLNQMVGIEYILLHAQEPILFIIRKQQRQSPAQVIPLADYYIIAGVIYQAPDLGSVINSRVLTAVHGIQSAFDEAMSYCRYHPSKGYWWHFKDHEEQDKVRPKAKRKEEPSSIFQRQRVDALLLDLRQKFPPKFVQLKPGEKPVPVDQTKKEAEPIPETVKPEEKETTKNVQQTVSAKGPPEKRMRLQ	soluble
MGHHHHHHSHMACYIYQLPSWVLDDLCRNMDALSEWDWMEFASYVITDLTQLRKIKSMERVQGVSITRELLWWWGMRQATVQQLVDLLCRLELYRAAQIILNWKPAPEIRCPIPAFPDSVK	soluble
MGHHHHHHSHMADTLAILNEFLLERSKREAEEENQIANKTGKDAQFEEDWQLSQFWYSTETKHALRDVVRKLLAERTKDSGDFSIALLSCPSLYKDIREIHDTVHIFEFDKRFEAYGTDFVHYDLNCVGSNPDYLKEHHQQYDLIVADPPF	soluble
MGHHHHHHSHMAGLQRLASHLPVGVMLPHNTTEAPGPHSAKQDSYEQGDSSQQSLKGHLRNNFQKQLLSNKELILDKVYTHPKWNTQTKARSYSYPHCTGISQQDPESDSQGQGNGLFYSSGPQSWYPKANNQDFIPFTKKRVGVDRAFPLKPMVHRKSCSTGEAGTDGDHNVYPRPPEPREFSSRNFGVRNQGNFSVVGTVLAATQAEKAVANFDRTEWVQIRRLEAAGESLEEEIRRKQILLRGS	not soluble
MGHHHHHHSHMANSAGSMANSAGSMPPLSTIDPSGTRSKNMPIKDNALVMFNGKVYLLAKKGTDVLPSQIDQQNSVSPDTPVRKDTLQTVSSSPVTEISREVVNIVLAKSKSSQMETKSLSNTQLASMANLRAEKNKVEKPSPSTTNPHMNQSSNYLKQSKTLFTNPIFPVGFSTGHNAPRKVTAVIYARKGSVLQSIEKISSSVDATTVTSQQCVFRDQEPKIHNEMASTSDKGAQGRNDKKDSQGRSNKALHLKSDAEFKKIFGLTKDLRVCLTRIPDHLTSGEGFDSFSSLVKSGTYKETEFMVKEGERKQQNFDKKRKAKTNKKMDHIKKRKTENAYNAIINGEANVTGSQLQYFTNFRCVTT	not soluble
MGHHHHHHSHMANSAGSMANSAGSSWHNDHNFSVSKQPNLVVHNHTVTVPEGETVKGDVTVKNGKLIIKGKIDGDVTVVNGEKYMASAGQVTGQIEEINQLFDWTWYKMKSAGKSVLDAFNPNGEE	not soluble
